The target in assay [1] is SARS-CoV-2 Spike Protein (S1 Subunit, Fc Tag) (Sino 40591-V02H) (SARS-CoV-2, UniProt P0DTC2 16-685). Briefly: Luminex, supernatant.
Assay [2] deals with SARS-CoV-2 Spike Protein (S1 Subunit, His Tag) (Sino 40591-V08H) (SARS-CoV-2, UniProt P0DTC2 16-685). Briefly: Luminex, supernatant.
The target of assay [3] is SARS-CoV-2 (2019-nCoV) Spike Protein (S1 Subunit, Fc Tag) (Sino 40591-V02H) (SARS-CoV-2, UniProt P0DTC2 16-685). Briefly: Luminex bead binding, supernatant.
Assay [4] has as its target SARS-CoV-2 (2019-nCoV) Spike Protein (S1 Subunit, His Tag) (Sino 40591-V08H) (SARS-CoV-2, UniProt P0DTC2 16-685). Briefly: Luminex bead binding, supernatant.

This is an account of results in patent publication US20240043504A1 (published 2024).

B1: mAb10964 (antibody, V domains shown)
VH: QVQLQESGPGLVKPSETLSLTCTVSGGSINNYYWIWIRQPPGKGLEWIGYIYHSGSTNYNPSLKSRVTISVDTSKNQFSLKVSSVTAADTAVYYCANMVRGVYEDDYWGQGTLVTVSS
VL: DIQMTQSPSSLSASVGDRVTITCRASQSISNYLNWYQQKPGKAPKLLIFAASSLRSGVPSRFSGSGSGTDFTLTISSLHPEDFATYYCQQNYNTPLTFGPGTKVDIKR
On to B1, for which the MFI in assay [1] came out at 18600 MFI; in assay [2], 24200 MFI.

B2: mAb10998 (antibody, V domains shown)
VH: EVQLVESGGGLVHPGGSLRLSCAASGLTVSSNYMSWVRQAPGKGLEWVSVIYSGGSTYYADSVKGRFTISRHNSKNTLFLQMNSLRAEDTAVYYCARDRPITGTTLDVWGQGTTVTVSS
VL: DIQMTQSPSSLFASVGDRVTITCRASQSISSYLNWYQQKPGKAPKLLIYAASSLQSGVPSRFSGSGSGTDFTLTISSLQPEDFAFYYCQQTYSTPPITFGQGTRLEIK
For the molecule B2, the entries for the “Binding signal (MFI)” value in assay [3] and in assay [4] were 724 MFI and 717 MFI, respectively.

B3: mAb10966 (antibody, V domains shown)
VH: EVQLVESGGGLVQPGGSLRLSCAASGLTVSSNYMSWVRQAPGKGLEWVSVIYSGGSTFYADSVKGRFTISRDNSKNTLYLQMNSLRPEDTAVYYCAREGRIAATGYGMDVWGQGTTVTVSS
VL: not shown
For B3, the figures for the MFI in assay [1] and in assay [2] were 16400 MFI and 23300 MFI, respectively.

B4: mAb10956 (antibody, V domains shown)
VH: EVQLVESGGGLVQPGGSLRLSCAASGLTVSSNYMSWVRQAPGKGLEWVSVIYSGGSTFYADSVKGRFTISRDNSKNTLYLQMNSLRAEDTAVYYCARDLIKYGMDVWGQGTTVTVSS
VL: not shown
For B4, the values for the MFI in assay [1] and in assay [2] were 15000 MFI and 20000 MFI, respectively.

B5: mAb10957 (antibody, V domains shown)
VH: EVQLVESGGGLVQPGGSLRLSCAASGVTVSSNYMSWVRQAPGKGLEWVSVIYSGGSTFYADSVKGRFTISRDNSKNTLFLQMNSLRIEDTAVYYCARDLGPYGMDVWGQGTTVTVSS
VL: DIQLTQSPSFLSASVGDRVTITCRASQGISSYLAWYQQKPGKAPKLLIYAASTLQSGVPSRFSGSGSGTQFILTISSLQPEDFATYYCQQLNSYPGFTFGPGTKVDIKR
Regarding B5, the MFI amounted to 8450 MFI in assay [1] and 12000 MFI in assay [2].

B6: mAb11004 (antibody, V domains shown)
VH: QVQLVESGGGVVQPGRSLRLSCVASGFTFSIYGMDWVRQAPGKGLEWVAVISYDGSNKYYADSVKGRFTISRDNSKNTLYLQMNSLRPEDTAVYYCAKDREAAADAFDIWGQGTMVTVSS
VL: DIQMTQSPSSVSASVGDRVTITCRASQGISSWLAWYQQKPGKAPKLLIYAASSLHSGVPSRFSGSGSGTDFTLTISSLQPEDFATYYCQQANSFRLTFGGGTKVEIK
In the case of B6, the “Binding signal (MFI)” value in assay [3] is 4480 MFI; in assay [4], 9530 MFI.

B7: mAb11006 (antibody, V domains shown)
VH: EVQLVESGGGLVQPGGSLRLSCAASGFIVSRNYMSWVRQAPGKGLEWVSVIYSGGSTFYADSVKGRFTISRHNSKNTLYLQMNSLKAEDTAVYYCARELRGYFDYWGQGTLVTVSS
VL: DIQLTQSPSFLSASVGDRVTITCWASQGISSYLAWYQQKPGKAPKLLIYAASTLQSGVPSRFSGSGSGTEFTLTISSLQPEDFATYYCQLLNSYPYTFGQGTKLEIK
On to B7, for which the “Binding signal (MFI)” value in assay [3] amounted to 2050 MFI.

B8: mAb11008 (antibody, V domains shown)
VH: EVQLVESGGGLVQPGGSLRLSCAASGFTVSSNYMTWVRQAPGKGLEWVSVIYSGGSTFYADSVKGRFTISRHNSENTLYLQMNSLRAEDTAVYYCARDLAAAGTDYWGQGALVTVSS
VL: DIQLTQSPSFLSASVGDRVTITCWASQGISSYLAWYQQKPGKAPKLLIYAASTLQSGVPSRFSGSGSGTEFTLTISSLQPDDFATYYCQHLNSYLYTFGQGTKLEIK
Turning to B8, the figures for the “Binding signal (MFI)” value in assay [3] and in assay [4] were 6880 MFI and 1420 MFI, respectively.

B9: mAb10967 (antibody, V domains shown)
VH: EVQLVESGGGLVQPGGSLRLSCAASGFTVSSNYMSWVRQAPGKGLEWVSVIYPGGSTFYADSVKGRFTISRDNSKNTLYLQMNSLRAEDTAVYYCARDQRDFAWGQGTLVTVSS
VL: DIQMTQSPSSLSASVGDRVTITCQASQDISNYLNWYQQKPGKAPKLLIYDASNLETGVPSRFSGSGSGTDFTFTISGLQPEDIATYYCQQYDNLPPTFGQGTRLEIKR
For B9, the MFI is 15800 MFI in assay [1] and 21900 MFI in assay [2].

B10: mAb10954 (antibody, V domains shown)
VH: EVQLVESGGGLVQPGGSLRLSCAASGITVSSNYMSWVRQAPGKGLEWVSLIYSGGSTYYADSVKGRFTISRDNSKNTLYLQMNSLRVEDTAVYYCARDHGMAAAGYNYWGQGTLVTVSS
VL: DIQMTQSPSSLSASVGDRVTITCQASQDINKYLNWYQQKPGKAPKLLIYDASNLETGVPSRFSGSGSGTDFTFTINSLQPEDFATYFCQQYDNLPPAFGQGTKVEIKR
Take B10: the MFI in assay [1] is 16600 MFI; in assay [2] it was 21300 MFI.
